Reference: the Human Domainome abundance scans (Beltran et al. 2025)
± gives the uncertainty stated by the source.

B1: Nuclear receptor subfamily 1 group D member 2, residues 103 to 171; numbered along this chain, Q14995 (parent)
chain: CKVCGDVASGFHYGVHACEGCKGFFRRSIQQNIQYKKCLKNENCSIMRMNRNRCQQCRFKKCLSVGMSR

Variants of: B1
Assay: abundance fitness (aPCA) (normalised: wild type 0, dead -1); higher = more abundant; growth selection in yeast, the domain comes from the species named
Settings: Homo sapiens

Q: Which abundance fitness does the source give for CKVCGDVASGFHYGVHACEGCKGFFRRSIQQNIQYKKCLKNENCSIMRMNRNRCQQCRFKKCLSVGESR here?
A: Its abundance fitness is -0.483 ± 0.25.

Q: For CKVCGDVASGFHYGVHACEGCKGFFRRSIQQNIQYKKCLKNENCSIMRMNRNRCQQCRFKKCLSVGDSR, which abundance fitness is on record?
A: The abundance fitness was 0.029 ± 0.21.

Q: For CKVCGDVASGFHYGVHACEGCKGFFRRSIQQNIQYKKCLKNENCSIMRMNRNRCQQCRFKKCLSVGKSR, which abundance fitness is on record?
A: Its abundance fitness is -0.688 ± 0.14.

Q: Which abundance fitness does the source give for CKVCGDVASGFHYGVHACEGCKGFFRRSIQQNIQYKKCLKNENCSIMRMNRNRCQQCRFKKCLSVGGSR here?
A: The abundance fitness was -0.744 ± 0.13.

Q: For CKVCGDVASGFHYGVHACEGCKGFFRRSIQQNIQYKKCLKNENCSIMRMNRNRCQQCRFKKCLSVGASR, which abundance fitness is on record?
A: The abundance fitness was -0.574 ± 0.13.

Q: Which abundance fitness does the source give for CKVCGDVASGFHYGVHACEGCKGFFRRSIQQNIQYKKCLKNENCSIMRMNRNRCQQCRFKKCLSVGLSR here?
A: The abundance fitness was -0.817 ± 0.17.

Q: For CKVCGDVASGFHYGVHACEGCKGFFRRSIQQNIQYKKCLKNENCSIMRMNRNRCQQCRFKKCLSVGHSR, which abundance fitness is on record?
A: Its abundance fitness is -0.973 ± 0.33.

Q: For CKVCGDVASGFHYGVHACEGCKGFFRRSIQQNIQYKKCLKNENCSIMRMNRNRCQQCRFKKCLSKGMSR, which abundance fitness is on record?
A: Its abundance fitness is -0.851 ± 0.24.

Q: For CKVCGDVASGFHYGVHACEGCKGFFRRSIQQNIQYKKCLKNENCSIMRMNRNRCQQCRFKKCLSCGMSR, which abundance fitness is on record?
A: Its abundance fitness is -0.571 ± 0.43.

Q: For CKVCGDVASGFHYGVHACEGCKGFFRRSIQQNIQYKKCLKNENCSIMRMNRNRCQQCRFKKCLSIGMSR, which abundance fitness is on record?
A: Its abundance fitness is -0.308 ± 0.12.

Q: With CKVCGDVASGFHYGVHACEGCKGFFRRSIQQNIQYKKCLKNENCSIMRMNRNRCQQCRFKKCLSAGMSR as the variant, how does the abundance fitness read?
A: Its abundance fitness is -0.306 ± 0.092.

Q: With CKVCGDVASGFHYGVHACEGCKGFFRRSIQQNIQYKKCLKNENCSIMRMNRNRCQQCRFKKCLSRGMSR as the variant, how does the abundance fitness read?
A: The abundance fitness was -0.895 ± 0.14.

Q: With CKVCGDVASGFHYGVHACEGCKGFFRRSIQQNIQYKKCLKNENCSIMRMNRNRCQQCRFKKCLSWGMSR as the variant, how does the abundance fitness read?
A: Its abundance fitness is -1.02 ± 0.37.

Q: For CKVCGDVASGFHYGVHACEGCKGFFRRSIQQNIQYKKCLKNENCSIMRMNRNRCQQCRFKKCLSMGMSR, which abundance fitness is on record?
A: The abundance fitness was -0.012 ± 0.14.

Q: For CKVCGDVASGFHYGVHACEGCKGFFRRSIQQNIQYKKCLKNENCSIMRMNRNRCQQCRFKKCLSTGMSR, which abundance fitness is on record?
A: The abundance fitness was -0.536 ± 0.082.

Q: With CKVCGDVASGFHYGVHACEGCKGFFRRSIQQNIQYKKCLKNENCSIMRMNRNRCQQCRFKKCLSSGMSR as the variant, how does the abundance fitness read?
A: Its abundance fitness is -0.291 ± 0.08.

Q: Which abundance fitness does the source give for CKVCGDVASGFHYGVHACEGCKGFFRRSIQQNIQYKKCLKNENCSIMRMNRNRCQQCRFKKCLSQGMSR here?
A: Its abundance fitness is -0.733 ± 0.17.

Q: For CKVCGDVASGFHYGVHACEGCKGFFRRSIQQNIQYKKCLKNENCSIMRMNRNRCQQCRFKKCLSFGMSR, which abundance fitness is on record?
A: The abundance fitness was -0.739 ± 0.25.

Q: With CKVCGDVASGFHYGVHACEGCKGFFRRSIQQNIQYKKCLKNENCSIMRMNRNRCQQCRFKKCLSDGMSR as the variant, how does the abundance fitness read?
A: The abundance fitness was -0.601 ± 0.2.

Q: Which abundance fitness does the source give for CKVCGDVASGFHYGVHACEGCKGFFRRSIQQNIQYKKCLKNENCSIMRMNRNRCQQCRFKKCLSYGMSR here?
A: Its abundance fitness is -0.234 ± 0.18.

Q: With CKVCGDVASGFHYGVHACEGCKGFFRRSIQQNIQYKKCLKNENCSIMRMNRNRCQQCRFKKCLSLGMSR as the variant, how does the abundance fitness read?
A: The abundance fitness was -0.708 ± 0.13.

Q: With CKVCGDVASGFHYGVHACEGCKGFFRRSIQQNIQYKKCLKNENCSIMRMNRNRCQQCRFKKCLSPGMSR as the variant, how does the abundance fitness read?
A: The abundance fitness was -0.814 ± 0.17.

Q: For CKVCGDVASGFHYGVHACEGCKGFFRRSIQQNIQYKKCLKNENCSIMRMNRNRCQQCRFKKCLSVVMSR, which abundance fitness is on record?
A: The abundance fitness was -0.798 ± 0.23.

Q: With CKVCGDVASGFHYGVHACEGCKGFFRRSIQQNIQYKKCLKNENCSIMRMNRNRCQQCRFKKCLSVLMSR as the variant, how does the abundance fitness read?
A: Its abundance fitness is -0.459 ± 0.38.

Q: For CKVCGDVASGFHYGVHACEGCKGFFRRSIQQNIQYKKCLKNENCSIMRMNRNRCQQCRFKKCLSVMMSR, which abundance fitness is on record?
A: The abundance fitness was -0.574 ± 0.4.

Q: Which abundance fitness does the source give for CKVCGDVASGFHYGVHACEGCKGFFRRSIQQNIQYKKCLKNENCSIMRMNRNRCQQCRFKKCLSVFMSR here?
A: Its abundance fitness is -0.562 ± 0.47.

Q: With CKVCGDVASGFHYGVHACEGCKGFFRRSIQQNIQYKKCLKNENCSIMRMNRNRCQQCRFKKCLSVDMSR as the variant, how does the abundance fitness read?
A: The abundance fitness was -0.866 ± 0.41.

Q: For CKVCGDVASGFHYGVHACEGCKGFFRRSIQQNIQYKKCLKNENCSIMRMNRNRCQQCRFKKCLSVPMSR, which abundance fitness is on record?
A: Its abundance fitness is -0.802 ± 0.49.

Q: Which abundance fitness does the source give for CKVCGDVASGFHYGVHACEGCKGFFRRSIQQNIQYKKCLKNENCSIMRMNRNRCQQCRFKKCLKVGMSR here?
A: Its abundance fitness is 0.236 ± 0.095.

Q: With CKVCGDVASGFHYGVHACEGCKGFFRRSIQQNIQYKKCLKNENCSIMRMNRNRCQQCRFKKCLVVGMSR as the variant, how does the abundance fitness read?
A: The abundance fitness was -0.107 ± 0.09.

Q: With CKVCGDVASGFHYGVHACEGCKGFFRRSIQQNIQYKKCLKNENCSIMRMNRNRCQQCRFKKCLNVGMSR as the variant, how does the abundance fitness read?
A: The abundance fitness was -0.36 ± 0.14.

Q: With CKVCGDVASGFHYGVHACEGCKGFFRRSIQQNIQYKKCLKNENCSIMRMNRNRCQQCRFKKCLYVGMSR as the variant, how does the abundance fitness read?
A: Its abundance fitness is -0.512 ± 0.14.

Q: Which abundance fitness does the source give for CKVCGDVASGFHYGVHACEGCKGFFRRSIQQNIQYKKCLKNENCSIMRMNRNRCQQCRFKKCLLVGMSR here?
A: Its abundance fitness is 0.044 ± 0.064.

Q: For CKVCGDVASGFHYGVHACEGCKGFFRRSIQQNIQYKKCLKNENCSIMRMNRNRCQQCRFKKCLPVGMSR, which abundance fitness is on record?
A: Its abundance fitness is -0.857 ± 0.19.

Q: Which abundance fitness does the source give for CKVCGDVASGFHYGVHACEGCKGFFRRSIQQNIQYKKCLKNENCSIMRMNRNRCQQCRFKKCLQVGMSR here?
A: Its abundance fitness is 0.12 ± 0.089.

Q: For CKVCGDVASGFHYGVHACEGCKGFFRRSIQQNIQYKKCLKNENCSIMRMNRNRCQQCRFKKCLMVGMSR, which abundance fitness is on record?
A: The abundance fitness was -0.072 ± 0.11.

Q: With CKVCGDVASGFHYGVHACEGCKGFFRRSIQQNIQYKKCLKNENCSIMRMNRNRCQQCRFKKCLTVGMSR as the variant, how does the abundance fitness read?
A: The abundance fitness was -0.002 ± 0.094.

Q: With CKVCGDVASGFHYGVHACEGCKGFFRRSIQQNIQYKKCLKNENCSIMRMNRNRCQQCRFKKCLRVGMSR as the variant, how does the abundance fitness read?
A: The abundance fitness was -0.334 ± 0.1.

Q: Which abundance fitness does the source give for CKVCGDVASGFHYGVHACEGCKGFFRRSIQQNIQYKKCLKNENCSIMRMNRNRCQQCRFKKCLIVGMSR here?
A: Its abundance fitness is -0.911 ± 0.35.
